Experimental data taken from publication PMC4351203.

How the values were obtained:
Details in all cases: reference: wild type; sites Y554
[1] = molecular target: paxillin (endogenous, HEK293T) (UniProt P49023); assay: anti-FLAG IP, FLAG-peptide elution, Western blot
[2] = molecular target: Hic-5 (endogenous, HEK293T) (UniProt O43294); assay: anti-FLAG IP, FLAG-peptide elution, Western blot
Hic-5 (Myc-tagged) = Hic-5 (Myc-tagged) (UniProt Q62219); assay: anti-FLAG co-IP, anti-Myc blot
[3] = molecular target: paxillin (Myc-tagged; endogenous in mouse brain) (UniProt Q8VI36); assay: anti-FLAG co-IP, anti-Myc blot

Measured: binding against the reference

Git1 (FLAG-, YFP-tagged, transfected) (from UniProt Q9Z272) Y554F
stronger: all assays above
